Here are results for six molecules from article PMC12823420 (Nature, 2024).

Where no end group is shown, it is not given here.

Common to all, as to conditions: both partners purified
Test [1] deals with T1, Flag-tagged UAP56 (human, UniProt Q13838 1-428).
T1 construct: Used in an in vitro pull-down analysed by Coomassie staining
Briefly: pull-down; Flag-tagged UAP56 (5 µM) on anti-Flag M2 beads with WT or mutant SARNP (20 µM); buffer A2, room temperature 1 h; Coomassie.

Test [2] has as its target T2, UAP56 (human, UniProt Q13838 1-428).
T2 construct: The methods name 6×His-TwinSTREPII-3C-UAP56 and 10×His-3C-UAP56; also called DDX39B; DDX39
Briefly: pull-down.

Test [3] addresses T2, UAP56. The test is described as follows: pull-down; MBP-tagged full-length or truncated ALYREF (2.5 µM) on amylose resin with 12.5 µM UAP56, UCM-1, N-UBM or C-UBM or 6 µM full-length SARNP; with or without 1 mM ATP and 200 µM 15 U RNA; Coomassie.
Test [4] addresses T2, UAP56. The test is described as follows: grating-coupled interferometry (GCI); biotinylated UBM or UCM peptides captured on a streptavidin chip; UAP56 injected; 25 mM HEPES pH 7.9, 50 mM KCl, 1 mM MgCl2, 1 mM TCEP, 25 °C; one-to-one model; UCM peptides also with AMP-PNP or AMP-PNP and 15 U RNA.

B1: SARNP-6×His (full-length SARNP) (natural protein, human, UniProt P82979 1-210, looked up)
chain: MATETVELHKLKLAELKQECLARGLETKGIKQDLIHRLQAYLEEHAEEEANEEDVLGDETEEEETKPIELPVKEEEPPEKTVDVAAEKKVVKITSEIPQTERMQKRAERFNVPVSLESKKAARAARFGISSVPTKGLSSDNKPMVNLDKLKERAQRFGLNVSSISRKSEDDEKLKKRKERFGIVTSSAGTGTTEDTEAKKRKRAERFGIA
notes: SARNP, human; also called CIP29; recombinant full length SARNP; source: E. coli BL21 DE3 RIL, purified (HisTrap, HiTrapQ, Superdex 200)
For B1, in test [1], the binding result is listed as “binds”.

B2: MBP-SARNP^47–210-3C-3V5-SUMO-10×His (domain or fragment, human, UniProt P82979 47-210, looked up)
chain: EEEANEEDVLGDETEEEETKPIELPVKEEEPPEKTVDVAAEKKVVKITSEIPQTERMQKRAERFNVPVSLESKKAARAARFGISSVPTKGLSSDNKPMVNLDKLKERAQRFGLNVSSISRKSEDDEKLKKRKERFGIVTSSAGTGTTEDTEAKKRKRAERFGIA
notes: SARNP, human, residues 47-210; also called MBP-SARNP residues 47-210; SARNP lacking the N-terminal SAP domain; source: E. coli BL21 DE3 RIL, purified; not shown: MBP, N-terminal, kept
Take B2: the binding result in test [1] is on record as “binds”.

B3: 10×His-SUMO-3V5-tagged SARNP UCM-1 (residues 82-115) (peptide)
chain: VDVAAEKKVVKITSEIPQTERMQKRAERFNVPVS
notes: also called Sumo-V5–UCM-1; SUMO-V5-3C–UCM; source: E. coli BL21 DE3 RIL, purified (HisTrap, HiTrapQ, Superdex 75)
As to B3, the binding result in test [2] is “binds”.

B4: MBP-tagged ALYREF^N (residues 1–182) (domain or fragment)
chain: not shown
notes: also called ALYREF construct harbouring only an N-UBM
Regarding B4, in test [3], the binding result is recorded as “binds”.

B5: MBP-tagged ALYREF^C (residues 106–257) (domain or fragment)
chain: not shown
notes: also called ALYREF harbouring only a C-UBM
Take B5: the binding result in test [3] is recorded as “binds”.
SISRKSEDDEKLKKRKERFGIVTS (also: biotinylated, site not given here) [SARNP UCM-4 peptide, biotinylated] came in with a Kd in test [4] of 10 to 20 µM.
